The values below come from patent US20250147051A1, “METHOD FOR DETECTING A TAU PROTEIN IN A SALIVA SAMPLE” (GTINVENT LIMITED, priority 2022, published 2025).

Experiment [1] deals with full length human tau protein 2N4R (hT40) (human) (UniProt P10636). Kind of experiment: Simoa 3-step sandwich, S1D12 capture beads, biotinylated BT2 detector, recombinant hTau40 standard curve; fifth of 8 cells of a shifted row.
For experiment [2] the target is unchanged. Kind of experiment: Simoa 3-step sandwich, BT2 capture beads, biotinylated HT7 detector, recombinant hTau40 standard curve; sixth of 8 cells of a shifted row.
The target is the same in experiment [3]. Kind of experiment: Simoa 3-step sandwich, S1D12 capture beads, biotinylated HT7 detector, recombinant hTau40 standard curve; fourth of 8 cells of a shifted row.
Experiment [4] has the same target. Kind of experiment: Simoa 3-step sandwich, S1D12 capture beads, biotinylated Tau12 detector, recombinant hTau40 standard curve; third of 8 cells of a shifted row.
Experiment [5] has the same target. Kind of experiment: Simoa 3-step sandwich, BT2 capture beads, biotinylated Tau12 detector, recombinant hTau40 standard curve; first of 8 cells of a shifted row, read in the order of the assay heads.
Experiment [6] shares this target. Kind of experiment: Simoa, Tau12 on beads, biotinylated HT7 detector.
Experiment [7] shares this target. Kind of experiment: Simoa 3-step sandwich, S1D12 capture beads, biotinylated Tau46 detector, recombinant hTau40 standard curve; seventh of 8 cells of a shifted row.

full length human tau protein 2N4R (hT40) (human), sequence (P10636 other isoform, or with tags, fused parts or gaps limits assumed): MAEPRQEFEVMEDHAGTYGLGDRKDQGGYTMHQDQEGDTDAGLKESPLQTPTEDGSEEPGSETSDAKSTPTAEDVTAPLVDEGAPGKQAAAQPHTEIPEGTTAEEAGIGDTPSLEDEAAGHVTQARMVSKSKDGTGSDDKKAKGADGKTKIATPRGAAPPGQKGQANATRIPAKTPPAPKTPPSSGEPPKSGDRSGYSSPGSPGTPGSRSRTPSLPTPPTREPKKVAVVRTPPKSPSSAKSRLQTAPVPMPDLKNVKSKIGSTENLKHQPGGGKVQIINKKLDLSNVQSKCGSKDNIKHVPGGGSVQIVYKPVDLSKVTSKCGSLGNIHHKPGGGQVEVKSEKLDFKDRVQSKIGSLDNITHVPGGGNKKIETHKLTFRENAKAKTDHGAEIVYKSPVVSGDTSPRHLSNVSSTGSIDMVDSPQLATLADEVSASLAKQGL

For BT2 (antibody), in experiment [1], the Assay limit of detection came out at 10.8 pg/mL. Consider HT7 (antibody), for which the Assay limit of detection in experiment [2] and in experiment [3] was 0.25 pg/mL each time.

As for Tau12 mAb (antibody), the Assay limit of detection in experiment [4] and in experiment [5] was 0.25 pg/mL throughout. Besides, the Simoa limit of detection in experiment [6] amounted to 2.2 pg/mL. Turning to Tau46 (antibody), the Assay limit of detection in experiment [7] was found to be 2.2 pg/mL.
